{"source": "patent US20140005119A1", "about": "“COMPOSITIONS AND METHODS FOR INHIBITING THE ACTIVITY OF P110a MUTANT PROTEINS” (Case Western Reserve University, priority 2012, published 2014)", "key": {"[1]": {"biological_target": "T1, protein interaction between p110α Q546P and IRS1 in Vaco481 CRC cells (Homo sapiens, UniProt P35568)", "T1 construct": "endogenous in cells; host or cells: Vaco481 CRC cells", "T1 sequence (P35568 1-1242)": "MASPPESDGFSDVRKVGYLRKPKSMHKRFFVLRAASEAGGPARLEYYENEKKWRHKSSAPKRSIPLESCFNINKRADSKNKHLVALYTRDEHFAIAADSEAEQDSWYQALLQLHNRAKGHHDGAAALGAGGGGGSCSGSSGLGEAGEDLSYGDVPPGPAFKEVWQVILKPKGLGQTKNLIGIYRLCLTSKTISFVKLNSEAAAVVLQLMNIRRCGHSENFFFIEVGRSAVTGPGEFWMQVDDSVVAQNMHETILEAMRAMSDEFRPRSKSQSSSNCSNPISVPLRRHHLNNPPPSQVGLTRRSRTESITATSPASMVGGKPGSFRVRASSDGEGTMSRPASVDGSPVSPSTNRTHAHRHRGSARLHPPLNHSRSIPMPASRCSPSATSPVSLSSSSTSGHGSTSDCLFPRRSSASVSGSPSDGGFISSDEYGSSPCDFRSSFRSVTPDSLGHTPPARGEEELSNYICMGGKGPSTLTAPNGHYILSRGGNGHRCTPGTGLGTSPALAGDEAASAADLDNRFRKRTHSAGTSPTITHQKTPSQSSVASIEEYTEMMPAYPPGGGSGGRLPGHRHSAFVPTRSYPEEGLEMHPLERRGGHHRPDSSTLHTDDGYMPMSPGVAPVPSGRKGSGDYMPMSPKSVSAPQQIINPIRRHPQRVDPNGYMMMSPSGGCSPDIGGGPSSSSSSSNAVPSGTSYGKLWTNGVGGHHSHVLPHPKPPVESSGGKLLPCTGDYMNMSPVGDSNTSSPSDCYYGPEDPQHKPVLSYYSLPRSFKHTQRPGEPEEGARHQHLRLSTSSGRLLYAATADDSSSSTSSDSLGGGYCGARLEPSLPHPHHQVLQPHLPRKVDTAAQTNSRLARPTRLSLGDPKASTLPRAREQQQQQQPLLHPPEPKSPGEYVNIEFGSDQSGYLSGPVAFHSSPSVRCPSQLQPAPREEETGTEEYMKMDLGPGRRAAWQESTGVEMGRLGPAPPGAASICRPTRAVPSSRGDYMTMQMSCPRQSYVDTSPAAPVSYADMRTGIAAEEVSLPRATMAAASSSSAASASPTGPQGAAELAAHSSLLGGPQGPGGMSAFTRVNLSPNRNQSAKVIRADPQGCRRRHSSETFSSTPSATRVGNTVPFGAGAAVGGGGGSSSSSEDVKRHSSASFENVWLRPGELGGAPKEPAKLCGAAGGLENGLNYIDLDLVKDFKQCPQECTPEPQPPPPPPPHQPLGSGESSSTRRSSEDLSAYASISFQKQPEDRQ", "test": "Co-IP (anti-p110α) from Vaco481 CRC cells treated with stapled mutant peptide", "type": "cell-based", "experimental": "(§1) FIG. 4(A-F) illustrate: (A) Schematic diagram of linear and stapled WT and mutant peptides derived from p110α (SEQ ID NOs: 5, 6, 7 and 8). (B) Immunoblots of cell lysates immunoprecipitated with beads conjugated with anti-FLAG antibodies and then blotted with the indicated antibodies. Linear or stapled WT and mutant peptide were added into culture medium of the p110α E545K 3×FLAG KI cells for 16 hr. (C) Immunoblots of cell lysates immunoprecipitated with anti-p110α antibodies and then blotted with the indicated antibodies. Vaco481 CRC cells were treated with the stapled mutant peptides at the indicated concentration. (D) Immunoblots of cell lysates blotted with the indicated antibodies. The indicated cell lines were treated with the stapled mutant peptide. (E) Immunoblots of cell lysates blotted with the indicated antibodies. […]\n(§2) For Co-immunoprecipitation (Co-IP), cells were harvested, washed with PBS, and then lysed in IP buffer (50 mMTris [pH 7.4], 150 mMNaCl, 5 mMEDTA [pH 8.0], 0.5% NP40, 1 mM PMSF, complete Protease Inhibitor Cocktail tablet [Roche]; supplemented with phosphatase inhibitors [1 mM Na3VO4, 20 mM NaF, 0.1 mM b-glycerophosphate, 20 mM sodium pyrophosphate] when necessary). […] Lysates were then cleared by centrifugation (14,000 rpm, 10 min) and protein concentration in supernatants was determined with a BCA protein assay kit (Pierce, Rockford, Ill.). […]"}, "[2]": {"biological_target": "T2, interaction between IRS1 and DABD p110α E545K (Homo sapiens, UniProt P35568)", "T2 construct": "expressed in transfected cells", "T2 sequence (P35568 1-1242)": "T1 sequence (P35568 1-1242)", "test": "Co-IP from lysate of cells co-transfected with Myc-IRS1 and FLAG-tagged ΔABD p110α E545K, incubated with stapled peptide", "type": "binding", "experimental": "FIGS. 3(A-M) illustrate: (A, B) Mapping peptides (P3, SEQ ID NO: 1; P4 SEQ ID NO: 2; P5, SEQ ID NO: 3; P6, SEQ ID NO: 4) derived from mutant p110α that inhibit interaction between IRS1 and p110α E545K. The indicated peptides were added into cell lysates made from the p110α E545K 3×FLAG KI cells. Cell lysates were immunoprecipitated with beads conjugated with anti-FLAG antibodies and then blotted with anti-IRS1 antibodies. (C) Immunoblots of cell lysates made from the p110α E545K 3×FLAG KI cells. Cell lysates were immunoprecipitated with beads conjugated with anti-FLAG antibodies and then blotted with the indicated antibodies. […] (J, K) Immunoblot and graph of purified recombinant p110α E545K mutant proteins mixed with the indicated components and quantified using an in vitro lipid kinase assay. […]\nas §2"}, "[3]": {"tested_on": "p85 and IRS1", "test": "Immunoblot of treated cell lines, p85 and IRS1 levels", "type": "cell-based, human", "experimental": "as §1, §2"}}, "data": [{"substance": "H2N-SEITKQEK-D^549-FLW-S^553-HRHYC-COOH [stapled mutant peptide]", "values": [{"measurement": "disruption of protein interaction between p110α Q546P and IRS1", "setting": "[1]", "value": "disrupted"}, {"measurement": "inhibition of the interaction between IRS1 and DABD p110α E545K", "setting": "[2]", "value": "inhibited"}, {"measurement": "levels of p85 and IRS1", "setting": "[3]", "value": "did not affect"}]}]}
